# In patent US20260274955A1 (JANUX THERAPEUTICS, published 2026):
# B1: Phage-924 (peptide)
# peptide: TCAAGATYPWPSCL
# B2: Phage-957 (peptide)
# peptide: GCAAGATYPWPSCL
# B3: Phage-925 (peptide)
# peptide: RCAAGASYPWPPCL
# B4: Phage-926 (peptide)
# peptide: TCKAGATYLWPFCL
# B5: Phage-942 (peptide)
# peptide: WCKPGAPYKWPPCF
# B6: Phage-943 (peptide)
# peptide: TCAAGAMYTWPLCF
# B7: Phage-944 (peptide)
# peptide: TCSAGATWTWPQCL
# B8: Phage-946 (peptide)
# peptide: MCAEFFNYPWPLCL
# B9: Phage-975 (peptide)
# peptide: LCAEFFNYPWPLCL
# B10: Phage-947 (peptide)
# peptide: TCAAGATYEWPACL
# B11: Phage-958 (peptide)
# peptide: TCAAGATYKWPACL
# B12: Phage-948 (peptide)
# peptide: TCSAGAYYTWPYCF
# B13: Phage-949 (peptide)
# peptide: TCAAVFSYGWPECF
# B14: Phage-950 (peptide)
# peptide: SCSAGAMYTWPTCL
# B15: Phage-951 (peptide)
# peptide: QCAAGASYPWPMCL
# B16: Phage-953 (peptide)
# peptide: TCAAGATYAWPECL
# B17: Phage-955 (peptide)
# peptide: TCAAGAHYLWPWCM
# B18: Phage-956 (peptide)
# peptide: TCSAGATYVWPQCF
# B19: Phage-960 (peptide)
# peptide: TCAAGASYAWPWCL
# B20: Phage-961 (peptide)
# peptide: TCSAGASWAWPWCF
# B21: Phage-963 (peptide)
# peptide: TCSAGFHYEWPRCL
# B22: Phage-965 (peptide)
# peptide: LCEEFADYPWPMCL
# B23: Phage-966 (peptide)
# peptide: TCAAGATYSWPMCF
# B24: Phage-971 (peptide)
# peptide: TCAAGATYSWPWCF
# B25: Phage-969 (peptide)
# peptide: TCAAGANYPWPYCL
# B26: Phage-972 (peptide)
# peptide: TCAAGAHYTWPECF
# B27: Phage-973 (peptide)
# peptide: SCAAVFSYSWPMCF
# B28: Phage-974 (peptide)
# peptide: SCAAGATYSWPMCL
# B29: Phage-976 (peptide)
# peptide: QCSAGAAWPWPFCL
# B30: Phage-977 (peptide)
# peptide: MCAAGAHYTWPTCL
# B31: Phage-978 (peptide)
# peptide: TCSAGATYEWPWCM
# B32: Phage-979 (peptide)
# peptide: MCSAGANYPWPWCL
# B33: Phage-150 (peptide)
# peptide: YCDGHKAEYMDKCL
# B34: Phage-151 (peptide)
# peptide: YCDGHAPEYMLKCL
# B35: Phage-152 (peptide)
# peptide: YCDGHAPDYMLKCL
# B36: Phage-194 (peptide)
# peptide: YCDGHAPQYMLKCL
# B37: Phage-199 (peptide)
# peptide: YCDGHMPEYMLKCL
# B38: Phage-227 (peptide)
# peptide: YCDGHAPQYMGKCL
# B39: Phage-290 (peptide)
# peptide: YCMGHAPEYMEKCL
# B40: Phage-292 (peptide)
# peptide: YCDGHMPEYMEKCL
# B41: Phage-153 (peptide)
# peptide: YCDGHLPEYLPKCL
# B42: Phage-155 (peptide)
# peptide: YCDGHLPEYLSKCL
# B43: Phage-154 (peptide)
# peptide: YCDGHMPEYIAKCL
# B44: Phage-156 (peptide)
# peptide: YCAGHLPEYFLKCL
# B45: Phage-157 (peptide)
# peptide: YCDGHSPLYIWKCL
# B46: Phage-289 (peptide)
# peptide: YCDGHSPDYIWKCL
# B47: Phage-159 (peptide)
# peptide: YCDGHLPEYIEKCL
# B48: Phage-160 (peptide)
# peptide: YCDGHLPQYKAKCL
# B49: Phage-161 (peptide)
# peptide: YCDGHAVEYMAKCL
# B50: Phage-162 (peptide)
# peptide: YCDGHSIEYRWKCL
# B51: Phage-163 (peptide)
# peptide: YCEGHAEEYMQKCL
# B52: Phage-164 (peptide)
# peptide: YCDGHAPEYIYKCL
# B53: Phage-165 (peptide)
# peptide: YCDGHLEEYKQKCL
# B54: Phage-212 (peptide)
# peptide: YCMGHLPQYMEKCL
# B55: Phage-166 (peptide)
# peptide: YCMGHLPQYMQKCL
# B56: Phage-267 (peptide)
# peptide: YCVGHLPQYMEKCL
# B57: Phage-167 (peptide)
# peptide: YCDGHTQEYIAKCL
# B58: Phage-265 (peptide)
# peptide: YCDGHSQEYIAKCL
# B59: Phage-294 (peptide)
# peptide: YCDGHSPEYMTKCL
# Molecular target: T1, anti-CD28 Fab (SEQ ID NOs: 202, 203)
# T1 construct: biotinylated and captured on neutravidin coated plates in the phage ELISA
# Test: phage binding ELISA on captured biotinylated Fab;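 note: clonal phage supernatants added to wells preincubated with CD28 antigen or blocking buffer only, bound phage detected by ELISA with horseradish-conjugated anti-M13 antibody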
# Protocol: After panning, phage infected bacteria were plated out and colonies picked into 96 well blocks. Clonal phage was then amplified and separated from bacterial cells via centrifugation.
# Clonal phage were harvested as crude supernatants and screened via standard ELISAs. […] Prior to the addition of clonal phage, wells were incubated with blocking buffer and CD28 antigen or blocking buffer alone. Without washing or aspirating, clonal phage supernatants were then added to the wells and incubated for a short time. Wells were then washed followed by detection of bound phage using a horse radish conjugated anti-M13 antibody. Clonal phage of interest were then sent for sequence analysis.
# T1 sequence (VH, as listed by the source, chain 1 of 2): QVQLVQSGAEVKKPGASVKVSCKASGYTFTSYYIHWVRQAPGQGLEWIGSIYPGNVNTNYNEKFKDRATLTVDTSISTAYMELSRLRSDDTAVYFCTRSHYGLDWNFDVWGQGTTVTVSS
# T1 sequence (VL, as listed by the source, chain 2 of 2): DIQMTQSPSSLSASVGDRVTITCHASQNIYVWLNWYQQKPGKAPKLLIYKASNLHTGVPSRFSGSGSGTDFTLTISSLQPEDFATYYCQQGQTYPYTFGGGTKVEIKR
row,Binder,"Anti-CD28 Fab (SEQ ID NOs: 202, 203) signal"
1,B1,2.25
2,B2,2.05
3,B3,2.25
4,B4,2.23
5,B5,2.14
6,B6,2.14
7,B7,2.14
8,B8,2.11
9,B9,1.98
10,B10,2.09
11,B11,2.05
12,B12,2.09
13,B13,2.09
14,B14,2.09
15,B15,2.08
16,B16,2.08

row,Binder,"Anti-CD28 Fab (SEQ ID NOs: 202, 203) signal"
1,B17,2.05
2,B18,2.05
3,B19,2.03
4,B20,2.03
5,B21,2.02
6,B22,2.01
7,B23,2
8,B24,1.99
9,B25,1.99
10,B26,1.99
11,B27,1.99
12,B28,1.99
13,B29,1.97
14,B30,1.97
15,B31,1.97
16,B32,1.97

# Molecular target: T2, Anti-CD28 Fab (SEQ ID NOs: 202, 203)
# T2 construct: biotinylated and captured on neutravidin coated plates in the phage ELISA
# Test: phage ELISA on captured Fab, wells pre-incubated with CD28 antigen (competitor: CD28);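 note: bound clonal phage detected with an HRP-linked anti-M13 antibody, compared against wells that received blocking buffer alone without CD28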
# Protocol: (§1) Clonal phage were harvested as crude supernatants and screened via standard ELISAs. […] Prior to the addition of clonal phage, wells were incubated with blocking buffer and CD28 antigen or blocking buffer alone. Without washing or aspirating, clonal phage supernatants were then added to the wells and incubated for a short time. Wells were then washed followed by detection of bound phage using a horse radish conjugated anti-M13 antibody.
# T2 sequence (VH, as listed by the source, chain 1 of 2): as the sequence (VH, as listed by the source, chain 1 of 2) above
# T2 sequence (VL, as listed by the source, chain 2 of 2): as the sequence (VL, as listed by the source, chain 2 of 2) above
row,Binder,Anti-CD28 Fab signal in the presence of CD28
1,B33,0.07
2,B34,0.07
3,B35,0.09
4,B36,0.09
5,B37,0.09
6,B38,0.08
7,B39,0.07
8,B40,0.09
9,B41,0.09
10,B42,0.07
11,B43,0.08
12,B44,0.08
13,B45,0.09
14,B46,0.1
15,B47,0.07
16,B48,0.09
17,B49,0.1
18,B50,0.06
19,B51,0.06
20,B52,0.06
21,B53,0.08
22,B54,0.08
23,B55,0.11
24,B56,0.08
25,B57,0.06
26,B58,0.07
27,B59,0.07

# Molecular target: T2, Anti-CD28 Fab (SEQ ID NOs: 202, 203)
# Test: phage ELISA on captured biotinylated Fab;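 note: wells preblocked with or without CD28 antigen, then clonal phage supernatant added briefly, washed, and bound phage read out by ELISA using HRP-linked anti-M13 antibody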
# Protocol: as §1
row,Binder,Anti-CD28 Fab signal
1,B33,2.2
2,B34,2.2
3,B35,2.2
4,B36,2.12
5,B37,2.11
6,B38,2.06
7,B39,1.93
8,B40,1.93
9,B41,2.19
10,B42,2.19
11,B43,2.19
12,B44,2.19
13,B45,2.19
14,B46,1.93
15,B47,2.19
16,B48,2.19
17,B49,2.18
18,B50,2.18
19,B51,2.18
20,B52,2.18
21,B53,2.18
22,B54,2.08
23,B55,2.18
24,B56,1.98
25,B57,2.17
26,B58,1.99
27,B59,1.93
